Here are results for nine molecules from article PMC10397247.

What all share (assay): two-hybrid library CCmax;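 further: natural log of median RNA to DNA barcode read ratio; higher means stronger binding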
In one assay the target is T1, 4H3049-AA.
T1 chain: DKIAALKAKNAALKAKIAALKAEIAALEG
As to conditions: mean of both orientations.

In the next assay the target is T2, 4H1385-AA.
T2 chain: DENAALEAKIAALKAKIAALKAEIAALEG

For another assay, the target named is T3, 4H3378-AA.
T3 chain: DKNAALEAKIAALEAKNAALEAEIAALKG
Conditions: mean of both orientations.

Another assay deals with T4, 4H3427-AA.
T4 chain: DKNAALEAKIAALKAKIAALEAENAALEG
As to conditions: mean of both orientations.

In a further assay the target is T5, 4H32-AA.
T5 chain: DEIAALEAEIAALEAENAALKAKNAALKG
As to conditions: mean of both orientations.

The next assay concerns the target T6, 4H1874-AA.
T6 chain: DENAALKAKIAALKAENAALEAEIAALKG
As to conditions: mean of both orientations.

Another assay concerns the target T7, 4H3112-AA.
T7 chain: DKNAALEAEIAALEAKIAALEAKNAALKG
Conditions: mean of both orientations.

The target in a further assay is T8, 4H3056-AA.
T8 chain: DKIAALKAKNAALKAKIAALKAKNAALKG
As to conditions: mean of both orientations.

Another assay addresses T9, 4H3782-AA.
T9 chain: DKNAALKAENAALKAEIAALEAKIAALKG
Conditions: mean of both orientations.

The next assay has as its target T10, 4H2648-AA.
T10 chain: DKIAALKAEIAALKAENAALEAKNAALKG
Conditions: mean of both orientations.

The next assay concerns the target T11, 4H3413-AA.
T11 chain: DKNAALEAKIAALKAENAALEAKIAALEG
As to conditions: mean of both orientations.

Another assay has as its target T12, 4H2162-AA.
T12 chain: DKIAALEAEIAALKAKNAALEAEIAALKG
As to conditions: mean of both orientations.

The next assay has as its target T13, 4H1842-AA.
T13 chain: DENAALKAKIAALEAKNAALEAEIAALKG
Conditions: mean of both orientations.

The next assay concerns the target T14, 4H1597-AA.
T14 chain: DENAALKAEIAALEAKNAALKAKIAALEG
Conditions: mean of both orientations.

A further assay deals with T15, 4H2109-AA.
T15 chain: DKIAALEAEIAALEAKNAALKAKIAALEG

The next assay deals with T16, 4H171-AA.
T16 chain: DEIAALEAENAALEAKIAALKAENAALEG

The target in another assay is T17, 4H794-AA.
T17 chain: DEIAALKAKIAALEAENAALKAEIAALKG
Conditions: mean of both orientations.

In a further assay the target is T18, 4H2949-AA.
T18 chain: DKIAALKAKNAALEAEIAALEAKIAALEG
Conditions: mean of both orientations.

Another assay has as its target T19, 4H2642-AA.
T19 chain: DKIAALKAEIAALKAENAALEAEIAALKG
Conditions: mean of both orientations.

A further assay has as its target T20, 4H881-AA.
T20 chain: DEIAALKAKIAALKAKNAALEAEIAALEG
As to conditions: mean of both orientations.

The target in another assay is T21, 4H2754-AA.
T21 chain: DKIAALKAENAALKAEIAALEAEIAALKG
Conditions: mean of both orientations.

A further assay addresses T22, 4H2354-AA.
T22 chain: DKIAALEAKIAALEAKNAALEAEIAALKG
Conditions: mean of both orientations.

A further assay deals with T23, 4H3844-AA.
T23 chain: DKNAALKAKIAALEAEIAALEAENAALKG
Conditions: mean of both orientations.

In the next assay the target is T24, 4H566-AA.
T24 chain: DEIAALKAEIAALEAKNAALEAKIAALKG
Conditions: mean of both orientations.

A further assay addresses T25, 4H234-AA.
T25 chain: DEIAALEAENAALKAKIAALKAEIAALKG
Conditions: mean of both orientations.

In the next assay the target is T26, 4H2277-AA.
T26 chain: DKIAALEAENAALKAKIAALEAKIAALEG
Conditions: mean of both orientations.

The next assay concerns the target T27, 4H2505-AA.
T27 chain: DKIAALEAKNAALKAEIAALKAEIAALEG
As to conditions: mean of both orientations.

The target in another assay is T28, 4H2883-AA.
T28 chain: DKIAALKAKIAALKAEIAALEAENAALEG
Conditions: mean of both orientations.

The target of a further assay is T29, 4H406-AA.
T29 chain: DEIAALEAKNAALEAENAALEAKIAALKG
As to conditions: mean of both orientations.

Another assay has as its target T30, 4H347-AA.
T30 chain: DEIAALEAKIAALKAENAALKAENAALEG
As to conditions: mean of both orientations.

The target in another assay is T31, 4H3001-AA.
T31 chain: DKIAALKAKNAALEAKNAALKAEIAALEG
As to conditions: mean of both orientations.

Read-outs that look alike come from different tables or passages of the source.

On to DENAALEAKIAALKAEIAALEAKIAALKG [4H1350-AA], for which the interaction score with 4H3049-AA was determined as 0.379; in the assay with 4H1385-AA (mean of both orientations) it was 2.18.
With DENAALKAKIAALEAKNAALEAKIAALEG [4H1845-AA], the interaction score with 4H3378-AA was -1.04; with 4H3427-AA, -1.86; in the assay with 4H32-AA it was -1.5; with 4H1874-AA it was -1.25; in the assay with 4H3112-AA, -1.24; with 4H3056-AA, -1.58. The interaction score in the assay with 4H3782-AA was -1.6; with 4H2648-AA, -1.59; with 4H3413-AA, -0.729.
DENAALEAEIAALKAKNAALEAKIAALKG [4H1142-AA]: the interaction score with 4H3378-AA was -0.868; in the assay with 4H32-AA, -1.11; with 4H1874-AA, 0.966; with 4H2162-AA it was 0.00334; with 4H1842-AA, -0.709; with 4H3056-AA, -1.15. The interaction score with 4H1597-AA was 0.572; with 4H2648-AA, -0.52; with 4H2109-AA, 0.249; in the assay with 4H171-AA (mean of both orientations), -1.36; with 4H1385-AA, -1.1; in the assay with 4H3413-AA it was 0.554.
DENAALEAKIAALKAKNAALKAEIAALEG [4H1401-AA]: the interaction score is -0.723 with 4H3378-AA; -1.52 with 4H3427-AA; 0.0762 with 4H32-AA; -1.02 with 4H794-AA; 0.393 with 4H2949-AA; 1.3 in the assay with 4H2642-AA. For the same molecule, the interaction score was 1.26 with 4H1874-AA; -0.879 in the assay with 4H881-AA; -1.71 in the assay with 4H2754-AA; -1.06 with 4H3112-AA; -1.3 in the assay with 4H2354-AA; -0.79 in the assay with 4H3844-AA. In addition, the interaction score with 4H3056-AA was -1.2; in the assay with 4H566-AA, 1.79; with 4H234-AA, 0.335; with 4H2648-AA it was 0.46; with 4H2277-AA, -1.59; in the assay with 4H2505-AA, -1.67. Moreover, the interaction score with 4H3413-AA was 0.857; with 4H2883-AA, -1.43.
Regarding DENAALEAKIAALKAKIAALKAEIAALEG [4H1385-AA], the interaction score was -1.63 with 4H2162-AA; -1.47 with 4H1842-AA; -0.816 in the assay with 4H1597-AA; -0.544 with 4H3049-AA; 0.64 with 4H2109-AA (mean of both orientations); -0.131 with 4H171-AA (mean of both orientations). In addition, in the assay with 4H1385-AA, the interaction score is 2.06.
Regarding DENAALEAENAALEAEIAALEAEIAALEG [4H1153-AA], the interaction score in the assay with 4H3378-AA is -1.72; in the assay with 4H3427-AA it was -0.781; with 4H32-AA it was -2.43; with 4H794-AA, -1.49; in the assay with 4H2949-AA it was -0.947; with 4H2642-AA, -1.43. The interaction score in the assay with 4H1874-AA was -1.61; with 4H881-AA it was -1.26; with 4H2754-AA it was -0.638; with 4H3112-AA, -2.33; with 4H2354-AA, -1.55; in the assay with 4H3844-AA it was -0.484. The interaction score in the assay with 4H3056-AA was 1.46; in the assay with 4H566-AA, -1.5; with 4H234-AA it was 0.621; in the assay with 4H2648-AA it was -1.19; with 4H2277-AA, -1.07; with 4H2505-AA it was 0.301. Besides, the interaction score is -1.92 with 4H3413-AA and -1.14 in the assay with 4H2883-AA.
In the case of DEIAALEAENAALEAKIAALKAENAALEG [4H171-AA], the interaction score with 4H2162-AA was -1.5; in the assay with 4H1842-AA, -1.26; with 4H2109-AA (mean of both orientations), -0.826; with 4H171-AA it was -1.01.
DENAALKAEIAALKAENAALKAEIAALKG [4H1626-AA]: the interaction score with 4H406-AA is -1.8; in the assay with 4H347-AA it was -1.66; with 4H2162-AA, -1.39; with 4H1842-AA it was -1.57; with 4H2109-AA (mean of both orientations) it was -1.51; in the assay with 4H171-AA (mean of both orientations), -1.66. In addition, the interaction score with 4H3001-AA was -2.01.
As to DENAALEAKIAALEAENAALKAKIAALKG [4H1310-AA], the interaction score with 4H3378-AA was -0.0826; in the assay with 4H32-AA, -1.07; in the assay with 4H1874-AA it was 2.14; in the assay with 4H2162-AA, -0.945; in the assay with 4H1842-AA, 0.334; with 4H3056-AA, -1.47. Also, the interaction score with 4H1597-AA was 0.746; with 4H2648-AA, -1.18; with 4H2109-AA (mean of both orientations), 0.409; in the assay with 4H171-AA (mean of both orientations) it was -0.8; in the assay with 4H1385-AA (mean of both orientations), -1.04; in the assay with 4H3413-AA it was 1.51.
